Test results reported in PMC5651818, “VPS18 recruits VPS41 to the human HOPS complex via a RING–RING interaction” (Biochemical Journal, 2017).

Molecular target: T1, His-tagged VPS18 RING domain (residues 842–973) (human, UniProt Q9P253 842-973)
T1 construct: Vector pOPTnH; monomeric by SEC-MALS; also called VPS18 RING H6; VPS18H6; source: E. coli Rosetta2(DE3) pLysS, purified (Ni-NTA, SEC); not shown: LysHis6, C-terminal, kept
T1 sequence (looked up): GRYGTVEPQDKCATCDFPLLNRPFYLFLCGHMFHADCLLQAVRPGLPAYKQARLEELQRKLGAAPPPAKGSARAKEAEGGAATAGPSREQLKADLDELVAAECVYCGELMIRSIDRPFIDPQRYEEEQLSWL
Assay: SEC-MALS; Superdex 75 10/300, room temperature, 20 mM Tris (pH 7.5), 150 mM NaCl, 0.5 mM EDTA; complex formed from 0.48 mg/ml VPS41 RING and 0.68 mg/ml VPS18 RING H6 on ice for 15 min
Details: both partners purified

B1: tag-free VPS41 RING domain (residues 778–854) (domain or fragment, human, UniProt P49754 778-854, looked up)
chain: TQMKGVLVDEENICESCLSPILPSDAAKPFSVVVFHCRHMFHKECLPMPSMNSAAQFCNICSAKNRGPGSAILEMKK
notes: monomeric by SEC-MALS; also called untagged VPS41 RING; not shown: GST, N-terminal, cleaved
stoichiometry N: 1
